Experimental data published in US20050187147A1 (published 2005).
Square brackets hold non-standard residues; d marks the D form. Primed or numbered codes have the meaning given here. * marks the point of attachment. 10Ca = carbamate linkage conjugating the peptide-PEG to paclitaxel at C10; ALK(6) = not defined here; 10Es = not defined here; Cbz = O=C(OCc1ccccc1)*; PEG(13) = PEG13 linker; Piv = CC(C)(C)C(=O)*; OBn = c1ccc(CO*)cc1; PXL = paclitaxel

Target: Human Src kinase (Upstate #14-326) (human, UniProt P12931 1-536)
Assay: cell-based or functional assay

Cbz-YIYGSFK(Cbz)-{ALK(6)-10Es-PXL} (reading uncertain) [CBz-YIYGSFK(CBz)-ALK(6)-10Es-PXL]
Average src kinase activity: 0 % of parent peptide activity

Ac-E(OBn)YIYGSFK(Cbz)-{PEG(13)-10Ca-PXL} [Ac-E(Bzl)YIYGSFK(CBz)-PEG(13)-10Ca-PXL]
Average src kinase activity: 0 % of parent peptide activity

Piv-YIFGSFR-{PEG(13)-10Ca-PXL} [Pv-YIFGSFR-PEG(13)-10Ca-PXL]
Average src kinase activity: 0 % of parent peptide activity

Ac-EYIFGSFK-{PEG(13)-10Ca-PXL} [Ac-EYIFGSFK-PEG(13)-10Ca-PXL]
Average src kinase activity: 0 % of parent peptide activity

Ac-EYI[dY]GSFK-{PEG(13)-10Ca-PXL} [Ac-EYIyGSFK-PEG(13)-10Ca-PXL]
Average src kinase activity: 0 % of parent peptide activity
